The values that follow come from patent publication US20090022714A1, “Combination methods of inhibiting tumor growth with a vascular endothelial growth factor receptor antagonist” (ImClone Systems, Inc., priority 2001, published 2009).

The experiment has as its target chimeric receptor mouse flk-1 (VEGFR-2)/human fms expressed on transfected 3T3 cells (C441) (mouse; human) (UniProt P35918). The experiment in a line: cell-based or functional assay.

Chain of chimeric receptor mouse flk-1 (VEGFR-2)/human fms expressed on transfected 3T3 cells (C441) (mouse; human) (P35918 other isoform, or with tags, fused parts or gaps mutant limits assumed): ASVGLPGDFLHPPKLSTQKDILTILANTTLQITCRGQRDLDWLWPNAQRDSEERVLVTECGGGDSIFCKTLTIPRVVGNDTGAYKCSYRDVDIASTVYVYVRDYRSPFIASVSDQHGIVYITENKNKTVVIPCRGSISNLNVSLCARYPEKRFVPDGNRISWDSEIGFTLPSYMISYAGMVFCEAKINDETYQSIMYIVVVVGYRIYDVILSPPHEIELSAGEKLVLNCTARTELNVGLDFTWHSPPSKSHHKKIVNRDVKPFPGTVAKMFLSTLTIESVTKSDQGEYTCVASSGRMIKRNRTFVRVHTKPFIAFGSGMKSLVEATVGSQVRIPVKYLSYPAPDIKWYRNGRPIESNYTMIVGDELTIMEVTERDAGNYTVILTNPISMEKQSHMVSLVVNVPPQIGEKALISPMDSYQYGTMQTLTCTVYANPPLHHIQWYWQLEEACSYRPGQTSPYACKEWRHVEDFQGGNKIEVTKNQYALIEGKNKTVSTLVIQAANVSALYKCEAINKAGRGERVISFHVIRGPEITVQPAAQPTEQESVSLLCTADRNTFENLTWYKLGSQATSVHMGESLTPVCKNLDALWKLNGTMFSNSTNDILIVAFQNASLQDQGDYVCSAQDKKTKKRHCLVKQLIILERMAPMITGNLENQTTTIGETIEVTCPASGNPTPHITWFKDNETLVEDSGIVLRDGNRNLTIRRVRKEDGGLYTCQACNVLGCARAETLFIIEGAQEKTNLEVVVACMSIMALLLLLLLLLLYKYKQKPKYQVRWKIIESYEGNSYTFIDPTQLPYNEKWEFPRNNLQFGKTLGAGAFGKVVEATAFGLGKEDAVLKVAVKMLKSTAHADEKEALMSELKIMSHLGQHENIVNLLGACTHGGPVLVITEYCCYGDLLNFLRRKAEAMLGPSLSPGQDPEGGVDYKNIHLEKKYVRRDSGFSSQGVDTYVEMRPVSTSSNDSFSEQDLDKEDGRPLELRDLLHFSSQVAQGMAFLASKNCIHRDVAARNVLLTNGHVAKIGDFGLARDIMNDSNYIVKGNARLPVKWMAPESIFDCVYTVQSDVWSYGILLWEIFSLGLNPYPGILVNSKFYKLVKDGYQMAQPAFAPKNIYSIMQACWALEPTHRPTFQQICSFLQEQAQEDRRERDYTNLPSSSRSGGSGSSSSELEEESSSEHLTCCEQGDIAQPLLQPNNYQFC

B1: rat anti-mouse flk-1 (VEGFR-2) monoclonal antibody DC-101 (antibody, from another filing, rat IgG1, V domains shown)
VH: EVQLVETGGGLVQPGNSLKLSCATSGFIFSTTWMNWIRQTPGKRLEWLAQIEDKSNNYFISYSESVKGRFTISRDDSKSSVYLQMNNLKEEDTAIYYCSWKYRSNYYFDYWGQGVMVTVSS
VL: DIVLTQSPALAVSLEQRATISCKTSQNVDYYGISYLHWYQQKPGQQPKLLIYEGSNLASGIPARFSGSGSGTDFTLTIDPVEADDIVTYYCQQSKDYPYTFGAGTKLELKR
With B1, the inhibition of receptor activation by ligand was less than 1 µg/mL; the inhibition of receptor activation by ligand, prebound antibody was less than 1 µg/mL; the phosphorylation level relative to the fully stimulated receptor control, antibody added with ligand (densitometry) turned out to be 40%; the phosphorylation level relative to the fully stimulated receptor control, antibody prebound (densitometry) was determined as 6%. Further, the phosphorylation of flk-1 (VEGFR-2), competitive antibody titration was more than 0.5 µg/mL.
